This assay has as its target T1, Human recombinant AXL-FND1 (GST-FND1), from pET-41b(+) (human, UniProt P30530 225-331).
T1 construct: Expressed in E. coli, purified on Glutathione Sepharose; analyte in all Biacore measurements; GST put first by the usual layout of pET-41; not shown: GST-tag of vector pET-41b(+) (Novagen)
T1 sequence (looked up): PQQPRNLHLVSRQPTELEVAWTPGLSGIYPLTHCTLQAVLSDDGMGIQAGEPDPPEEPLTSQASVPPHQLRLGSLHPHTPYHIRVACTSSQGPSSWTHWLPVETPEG
The assay can be described thus: SPR (Biacore T100): antibody captured on Protein A, GST-FND1 as analyte. As to the method: Kinetic analyses of antigen-antibody reactions of humanized AXL antibodies were carried out using Biacore T100 (BIACORE). rec-Protein A (Zymed) (hereinafter, Protein A) was immobilized onto a sensor chip, various antibodies were bound to it, then an antigen as the analyte was flushed to measure the antibody-antigen interaction. Human recombinant AXL-FND1 (prepared in 2-2; hereinafter referred to as GST-FND1) prepared at various concentrations was used as the antigen. From the sensorgrams obtained through the measurements, kinetic parameters, namely binding rate constant kₐ (1/Ms) and dissociation rate constant kd (1/s), were calculated, and Kd (M) was calculated based on these values. Biacore T100 Evaluation Software (BIACORE) was used to calculate each of the parameters.
The sensor chips were produced by immobilizing approximately 3000 RU of Protein A onto CM5 (BIACORE) by amine coupling. Using the produced sensor chip, kinetic analyses were carried out on the interaction between the Protein A-bound antibodies and GST-FND1. HBS-EP+ was used as the running buffer, and the flow rate was set to 30 μL/min. Each antibody was prepared at 1 μg/mL using the running buffer, and was subjected to binding with Protein A for two minutes. GST-FND1 as the analyte was prepared at 0.5 and 2.0 μg/mL using HBS-EP+. Measurements were carried out by first binding the various humanized AXL antibodies, chimeric AXL antibodies, or mouse AXL antibodies of interest to Protein A, then applying an analyte solution to them for a two-minute interaction, and then switching to HBS-EP+ (BIACORE) for a two-minute measurement of the dissociation phase. After completion of measurement of the dissociation phase, 30 μL of 10 mM glycine-HCl (pH 2.0) was used for washing to regenerate the sensor chip. Such binding, dissociation, and regeneration were defined as one cycle of analysis. All experiments were performed at 25° C.
Affinity evaluation of each of the variants by Biacore was carried out by the method of Example 2.
For orientation: In SPR one partner is held on a chip, and binding of the other changes the refractive index at the surface.

Broadly, the Kd is the equilibrium constant for the complex coming apart.

B1: H9/L25 (antibody, human IgG1, kappa)
heavy: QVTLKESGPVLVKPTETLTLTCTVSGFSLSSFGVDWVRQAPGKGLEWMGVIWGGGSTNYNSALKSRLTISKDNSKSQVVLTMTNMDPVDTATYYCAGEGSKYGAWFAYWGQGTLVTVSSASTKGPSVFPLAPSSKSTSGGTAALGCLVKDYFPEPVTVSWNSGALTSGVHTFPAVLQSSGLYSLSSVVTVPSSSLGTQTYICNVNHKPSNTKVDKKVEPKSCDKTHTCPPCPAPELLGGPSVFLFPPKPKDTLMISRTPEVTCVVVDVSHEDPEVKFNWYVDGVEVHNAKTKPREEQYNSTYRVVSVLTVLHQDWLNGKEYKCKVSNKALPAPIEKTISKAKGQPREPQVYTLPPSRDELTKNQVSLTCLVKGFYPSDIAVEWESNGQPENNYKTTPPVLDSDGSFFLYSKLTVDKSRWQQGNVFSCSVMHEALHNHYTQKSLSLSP
light: DVVMTQSPLSLPVTLGRPASISCRSSQNIVHTNGNTYLEWYQQKPGKAPELLIYKVSNRFSGVPDRFSGSGSGTDFTLKISRVEAEDVGVYYCFQGSHIPFTFGQGTKLEIKRTVAAPSVFIFPPSDEQLKSGTASVVCLLNNFYPREAKVQWKVDNALQSGNSQESVTEQDSKDSTYSLSSTLTLSKADYEKHKVYACEVTHQGLSSPVTKSFNRGEC
As for B1, the dissociation constant (Kd) came to 3.54 nM.

B2: H25/L0 (antibody, human IgG1, kappa, V domains shown)
VH: QVTLKESGPVLVKPTETLTLTCTVSGFSLSSFGVDWVRQAPGKGLEWMGVIWGGGSTNYNSALQDRLTISKDNSKSQVVLTMTNMDPVDTATYYCAGEGSKYGAWFAYWGQGTLVTVSS
VL: DVVMTQSPLSLPVTLGQPASISCRSSQNIVHTNGNTYLEWYQQKPGKAPELLIYKVSNRFSGVPDRFSGSGSGTDFTLKISRVEAEDVGVYYCFQGSHIPFTFGQGTKLEIKR
Take B2: the Kd was determined as 2.5 nM.

B3: H9/L28 (antibody, human IgG1, kappa, V domains shown)
VH: QVTLKESGPVLVKPTETLTLTCTVSGFSLSSFGVDWVRQAPGKGLEWMGVIWGGGSTNYNSALKSRLTISKDNSKSQVVLTMTNMDPVDTATYYCAGEGSKYGAWFAYWGQGTLVTVSS
VL: DVVMTQSPLSLPVTLGQPASISCRSSQNIVHTNGNTYLEWYQQKPGKAPKLLIYKVSNRFSGVPDRFSGSGSGTDFTLKISRVEAEDVGVYYCFQGSHIPFTFGQGTKLEIKR
With B3, the Kd was found to be 3.06 nM.

B4: H9/L27 (antibody, human IgG1, kappa, V domains shown)
VH: QVTLKESGPVLVKPTETLTLTCTVSGFSLSSFGVDWVRQAPGKGLEWMGVIWGGGSTNYNSALKSRLTISKDNSKSQVVLTMTNMDPVDTATYYCAGEGSKYGAWFAYWGQGTLVTVSS
VL: DVVMTQSPLSLPVTLGQPASISCRSSRNIVHTNGNTYLEWYQQKPGKAPELLIYKVSNRFSGVPDRFSGSGSGTDFTLKISRVEAEDVGVYYCFQGSHIPFTFGQGTKLEIKR
Take B4: the Kd turned out to be 3.07 nM.

B5: H21/L0 (antibody, human IgG1, kappa, V domains shown)
VH: QVTLKESGPVLVKPTETLTLTCTVSGFSLSSFGVDWVRQAPGKGLEWMGVIWGGGSTNYNEALKSRLTISKDNSKSQVVLTMTNMDPVDTATYYCAGEGSKYGAWFAYWGQGTLVTVSS
VL: DVVMTQSPLSLPVTLGQPASISCRSSQNIVHTNGNTYLEWYQQKPGKAPELLIYKVSNRFSGVPDRFSGSGSGTDFTLKISRVEAEDVGVYYCFQGSHIPFTFGQGTKLEIKR
For the molecule B5, the Kd came to 2.35 nM.

B6: H9/L29 (antibody, human IgG1, kappa)
heavy: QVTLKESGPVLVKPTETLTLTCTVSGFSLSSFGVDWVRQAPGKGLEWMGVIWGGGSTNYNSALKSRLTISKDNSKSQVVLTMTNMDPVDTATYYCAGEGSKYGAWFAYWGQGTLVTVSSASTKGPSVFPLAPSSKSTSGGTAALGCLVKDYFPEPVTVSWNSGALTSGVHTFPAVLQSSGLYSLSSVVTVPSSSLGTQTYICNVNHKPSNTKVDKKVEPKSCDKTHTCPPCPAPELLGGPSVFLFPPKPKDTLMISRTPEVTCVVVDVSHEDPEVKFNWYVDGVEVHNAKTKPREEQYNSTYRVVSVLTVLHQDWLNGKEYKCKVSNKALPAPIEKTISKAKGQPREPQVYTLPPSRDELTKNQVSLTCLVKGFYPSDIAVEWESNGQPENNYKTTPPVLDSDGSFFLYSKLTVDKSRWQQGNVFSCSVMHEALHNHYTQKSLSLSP
light: DVVMTQSPLSLPVTLGQPASISCRSSQNIVHTNGNTYLEWYQQKPGKAPELLIYKVSNRFSGVPDRFSGSGSGTDFTLKISRVEAEDVGVYYCFQGSHIPFTFGRGTKLEIKRTVAAPSVFIFPPSDEQLKSGTASVVCLLNNFYPREAKVQWKVDNALQSGNSQESVTEQDSKDSTYSLSSTLTLSKADYEKHKVYACEVTHQGLSSPVTKSFNRGEC
For the molecule B6, the Kd amounted to 3.49 nM.

B7: H26/L0 (antibody, human IgG1, kappa)
heavy: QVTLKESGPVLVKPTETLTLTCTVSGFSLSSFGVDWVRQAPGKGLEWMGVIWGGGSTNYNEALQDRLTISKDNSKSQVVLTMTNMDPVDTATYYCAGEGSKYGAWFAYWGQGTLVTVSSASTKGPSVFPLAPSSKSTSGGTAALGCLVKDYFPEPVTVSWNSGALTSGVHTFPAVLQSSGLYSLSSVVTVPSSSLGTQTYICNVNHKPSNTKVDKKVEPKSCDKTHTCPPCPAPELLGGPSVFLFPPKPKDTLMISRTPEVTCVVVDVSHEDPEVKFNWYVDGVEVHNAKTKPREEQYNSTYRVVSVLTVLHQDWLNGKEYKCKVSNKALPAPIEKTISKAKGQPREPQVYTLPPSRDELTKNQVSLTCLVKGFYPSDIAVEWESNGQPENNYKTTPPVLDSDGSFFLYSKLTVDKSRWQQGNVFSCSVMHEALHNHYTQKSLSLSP
light: DVVMTQSPLSLPVTLGQPASISCRSSQNIVHTNGNTYLEWYQQKPGKAPELLIYKVSNRFSGVPDRFSGSGSGTDFTLKISRVEAEDVGVYYCFQGSHIPFTFGQGTKLEIKRTVAAPSVFIFPPSDEQLKSGTASVVCLLNNFYPREAKVQWKVDNALQSGNSQESVTEQDSKDSTYSLSSTLTLSKADYEKHKVYACEVTHQGLSSPVTKSFNRGEC
For the molecule B7, the Kd came to 2.5 nM.

B8: H17/L0 (antibody, human IgG1, kappa, V domains shown)
VH: QVTLKESGPVLVKPTETLTLTCTVSGFSLSDFGVDWVRQAPGKGLEWMGVIWGGGSTNYNSALKSRLTISKDNSKSQVVLTMTNMDPVDTATYYCAGEGSKYGAWFAYWGQGTLVTVSS
VL: DVVMTQSPLSLPVTLGQPASISCRSSQNIVHTNGNTYLEWYQQKPGKAPELLIYKVSNRFSGVPDRFSGSGSGTDFTLKISRVEAEDVGVYYCFQGSHIPFTFGQGTKLEIKR
B8: the Kd was determined as 3.46 nM.

B9: H23/L0 (antibody, human IgG1, kappa, V domains shown)
VH: QVTLKESGPVLVKPTETLTLTCTVSGFSLSSFGVDWVRQAPGKGLEWMGVIWGGGSTNYNSALQSRLTISKDNSKSQVVLTMTNMDPVDTATYYCAGEGSKYGAWFAYWGQGTLVTVSS
VL: DVVMTQSPLSLPVTLGQPASISCRSSQNIVHTNGNTYLEWYQQKPGKAPELLIYKVSNRFSGVPDRFSGSGSGTDFTLKISRVEAEDVGVYYCFQGSHIPFTFGQGTKLEIKR
On to B9, for which the dissociation constant Kd worked out at 2.39 nM.

B10: H18/L0 (antibody, human IgG1, kappa, V domains shown)
VH: QVTLKESGPVLVKPTETLTLTCTVSGFSLSEFGVDWVRQAPGKGLEWMGVIWGGGSTNYNSALKSRLTISKDNSKSQVVLTMTNMDPVDTATYYCAGEGSKYGAWFAYWGQGTLVTVSS
VL: DVVMTQSPLSLPVTLGQPASISCRSSQNIVHTNGNTYLEWYQQKPGKAPELLIYKVSNRFSGVPDRFSGSGSGTDFTLKISRVEAEDVGVYYCFQGSHIPFTFGQGTKLEIKR
Take B10: the Kd was 4.31 nM.

B11: H9/L31 (antibody, human IgG1, kappa)
heavy: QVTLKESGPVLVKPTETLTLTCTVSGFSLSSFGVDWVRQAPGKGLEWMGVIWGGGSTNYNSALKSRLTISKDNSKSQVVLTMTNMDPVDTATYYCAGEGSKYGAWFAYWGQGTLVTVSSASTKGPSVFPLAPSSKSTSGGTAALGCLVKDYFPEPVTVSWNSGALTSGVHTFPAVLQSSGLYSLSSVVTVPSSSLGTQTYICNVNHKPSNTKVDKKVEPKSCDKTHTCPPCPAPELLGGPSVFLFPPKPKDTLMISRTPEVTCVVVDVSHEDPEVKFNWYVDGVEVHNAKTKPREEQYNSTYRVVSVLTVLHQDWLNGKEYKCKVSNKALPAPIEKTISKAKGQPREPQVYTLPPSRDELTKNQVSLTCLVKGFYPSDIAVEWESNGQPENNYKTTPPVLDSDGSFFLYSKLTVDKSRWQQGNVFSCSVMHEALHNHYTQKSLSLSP
light: DVVMTQSPLSLPVTLGQPASISCRSSRNIVHTNGNTYLEWYQQKPGKAPKLLIYKVSNRFSGVPDRFSGSGSGTDFTLKISRVEAEDVGVYYCFQGSHIPFTFGQGTKLEIKRTVAAPSVFIFPPSDEQLKSGTASVVCLLNNFYPREAKVQWKVDNALQSGNSQESVTEQDSKDSTYSLSSTLTLSKADYEKHKVYACEVTHQGLSSPVTKSFNRGEC
As to B11, the Kd is 2.46 nM.

B12: H20/L0 (antibody, human IgG1, kappa, V domains shown)
VH: QVTLKESGPVLVKPTETLTLTCTVSGFSLSSFGVDWVRQPPGEGLEWIGVIWGGGSTNYNSALKSRLTISKDNSKSQVVLTMTNMDPVDTATYYCAGEGSKYGAWFAYWGQGTLVTVSS
VL: DVVMTQSPLSLPVTLGQPASISCRSSQNIVHTNGNTYLEWYQQKPGKAPELLIYKVSNRFSGVPDRFSGSGSGTDFTLKISRVEAEDVGVYYCFQGSHIPFTFGQGTKLEIKR
Regarding B12, the Kd stood at 3.21 nM.

B13: H9/L35 (antibody, human IgG1, kappa)
heavy: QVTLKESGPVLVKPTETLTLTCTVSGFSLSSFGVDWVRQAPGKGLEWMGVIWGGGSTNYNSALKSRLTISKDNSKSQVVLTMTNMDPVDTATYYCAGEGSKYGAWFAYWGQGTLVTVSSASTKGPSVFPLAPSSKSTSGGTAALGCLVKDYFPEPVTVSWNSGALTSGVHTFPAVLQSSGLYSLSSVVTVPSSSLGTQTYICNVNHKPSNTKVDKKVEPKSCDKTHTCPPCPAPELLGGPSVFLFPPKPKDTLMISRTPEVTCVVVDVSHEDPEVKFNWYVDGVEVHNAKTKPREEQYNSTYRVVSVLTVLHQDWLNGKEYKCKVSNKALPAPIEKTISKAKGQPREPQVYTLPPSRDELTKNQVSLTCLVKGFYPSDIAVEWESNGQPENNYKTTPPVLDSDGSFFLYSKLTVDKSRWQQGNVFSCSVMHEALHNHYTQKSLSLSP
light: DVVMTQSPLSLPVTLGQPASISCRSSRNIVHTNGNTYLEWYQQKPGKAPKLLIYKVSNRFSGVPDRFSGSGSGTDFTLKISRVEAEDVGVYYCFQGSHIPFTFGRGTKLEIKRTVAAPSVFIFPPSDEQLKSGTASVVCLLNNFYPREAKVQWKVDNALQSGNSQESVTEQDSKDSTYSLSSTLTLSKADYEKHKVYACEVTHQGLSSPVTKSFNRGEC
With B13, the Kd came out at 2.37 nM.

B14: H9/L34 (antibody, human IgG1, kappa)
heavy: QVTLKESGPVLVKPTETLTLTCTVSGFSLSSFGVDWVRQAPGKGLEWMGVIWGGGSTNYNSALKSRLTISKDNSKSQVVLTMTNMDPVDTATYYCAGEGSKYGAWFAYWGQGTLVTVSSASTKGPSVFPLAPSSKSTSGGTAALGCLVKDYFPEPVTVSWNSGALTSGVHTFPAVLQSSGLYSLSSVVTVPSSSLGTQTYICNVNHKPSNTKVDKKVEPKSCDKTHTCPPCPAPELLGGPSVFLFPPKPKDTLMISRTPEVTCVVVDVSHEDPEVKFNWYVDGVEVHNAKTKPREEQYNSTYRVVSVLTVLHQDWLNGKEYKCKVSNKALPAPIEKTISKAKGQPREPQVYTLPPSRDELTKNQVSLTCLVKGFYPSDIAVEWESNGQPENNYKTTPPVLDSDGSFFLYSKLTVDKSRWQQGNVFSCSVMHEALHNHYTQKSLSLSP
light: DVVMTQSPLSLPVTLGRPASISCRSSRNIVHTNGNTYLEWYQQKPGKAPKLLIYKVSNRFSGVPDRFSGSGSGTDFTLKISRVEAEDVGVYYCFQGSHIPFTFGQGTKLEIKRTVAAPSVFIFPPSDEQLKSGTASVVCLLNNFYPREAKVQWKVDNALQSGNSQESVTEQDSKDSTYSLSSTLTLSKADYEKHKVYACEVTHQGLSSPVTKSFNRGEC
Turning to B14, the Kd came out at 2.8 nM.

B15: H24/L0 (antibody, human IgG1, kappa, V domains shown)
VH: QVTLKESGPVLVKPTETLTLTCTVSGFSLSSFGVDWVRQAPGKGLEWMGVIWGGGSTNYNSALKDRLTISKDNSKSQVVLTMTNMDPVDTATYYCAGEGSKYGAWFAYWGQGTLVTVSS
VL: DVVMTQSPLSLPVTLGQPASISCRSSQNIVHTNGNTYLEWYQQKPGKAPELLIYKVSNRFSGVPDRFSGSGSGTDFTLKISRVEAEDVGVYYCFQGSHIPFTFGQGTKLEIKR
On to B15, for which the Kd was determined as 2.56 nM.

B16: H19/L0 (antibody, human IgG1, kappa, V domains shown)
VH: QVTLKESGPVLVKPTETLTLTCTVSGFSLSSFGVDWVRQAPGQGLEWMGVIWGGGSTNYNSALKSRLTISKDNSKSQVVLTMTNMDPVDTATYYCAGEGSKYGAWFAYWGQGTLVTVSS
VL: DVVMTQSPLSLPVTLGQPASISCRSSQNIVHTNGNTYLEWYQQKPGKAPELLIYKVSNRFSGVPDRFSGSGSGTDFTLKISRVEAEDVGVYYCFQGSHIPFTFGQGTKLEIKR
With B16, the Kd was 2.63 nM.

B17: H9/L37 (antibody, human IgG1, kappa)
heavy: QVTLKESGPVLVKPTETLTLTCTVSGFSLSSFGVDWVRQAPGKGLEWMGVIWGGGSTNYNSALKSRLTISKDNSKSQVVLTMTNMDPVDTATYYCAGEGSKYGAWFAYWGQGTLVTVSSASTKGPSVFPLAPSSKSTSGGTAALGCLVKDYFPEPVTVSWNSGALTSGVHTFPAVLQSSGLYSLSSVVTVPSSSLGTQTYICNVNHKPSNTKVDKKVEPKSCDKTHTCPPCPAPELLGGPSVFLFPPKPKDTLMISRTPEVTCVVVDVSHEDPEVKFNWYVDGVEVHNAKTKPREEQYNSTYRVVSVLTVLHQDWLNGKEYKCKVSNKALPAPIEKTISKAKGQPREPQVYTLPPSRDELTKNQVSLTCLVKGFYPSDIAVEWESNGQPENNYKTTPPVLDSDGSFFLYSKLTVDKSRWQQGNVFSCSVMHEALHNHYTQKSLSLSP
light: DVVMTQSPLSLPVTLGRPASISCRSSRNIVHTNGNTYLEWYQQKPGKAPKLLIYKVSNRFSGVPDRFSGSGSGTDFTLKISRVEAEDVGVYYCFQGSHIPFTFGRGTKLEIKRTVAAPSVFIFPPSDEQLKSGTASVVCLLNNFYPREAKVQWKVDNALQSGNSQESVTEQDSKDSTYSLSSTLTLSKADYEKHKVYACEVTHQGLSSPVTKSFNRGEC
Take B17: the Kd was determined as 2.69 nM.

B18: H22/L0 (antibody, human IgG1, kappa, V domains shown)
VH: QVTLKESGPVLVKPTETLTLTCTVSGFSLSSFGVDWVRQAPGKGLEWMGVIWGGGSTNYNSELKSRLTISKDNSKSQVVLTMTNMDPVDTATYYCAGEGSKYGAWFAYWGQGTLVTVSS
VL: DVVMTQSPLSLPVTLGQPASISCRSSQNIVHTNGNTYLEWYQQKPGKAPELLIYKVSNRFSGVPDRFSGSGSGTDFTLKISRVEAEDVGVYYCFQGSHIPFTFGQGTKLEIKR
As for B18, the Kd worked out at 3.14 nM.

Source of the values: patent publication US20120121587A1 (Chugai, published 2012).
